According to patent publication US20100136573:

Molecular target: Recombinant human GST-TDP-43 (N-terminal GST tag, full length), non-phosphorylated
Sequence (chain, as listed by the source): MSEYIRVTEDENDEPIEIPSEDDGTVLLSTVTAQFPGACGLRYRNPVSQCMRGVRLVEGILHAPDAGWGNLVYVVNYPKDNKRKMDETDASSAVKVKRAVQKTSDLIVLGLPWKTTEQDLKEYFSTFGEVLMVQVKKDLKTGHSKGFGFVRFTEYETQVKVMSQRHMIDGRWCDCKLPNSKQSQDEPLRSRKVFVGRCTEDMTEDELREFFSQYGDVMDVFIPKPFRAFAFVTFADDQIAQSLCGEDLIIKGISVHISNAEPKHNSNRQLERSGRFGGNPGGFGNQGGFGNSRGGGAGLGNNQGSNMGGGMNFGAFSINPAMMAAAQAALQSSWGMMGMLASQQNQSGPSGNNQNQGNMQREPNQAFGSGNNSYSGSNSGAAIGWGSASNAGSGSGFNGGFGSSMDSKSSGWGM

B1: active human recombinant caspase-3 (CHEMICON) (protein)
chain: SGISLDNSYKMDYPEMGLCIIINNKNFHKSTGMTSRSGTDVDAANLRETFRNLKYEVRNKNDLTREEIVELMRDVSKEDHSKRSSFVCVLLSHGEEGIIFGTNGPVDLKKITNFFRGDRCRSLTGKPKLFIIQACRGTELDCGIETDSGVDDDMACHKIPVEADFLYAYSTAPGYYSWRNSKDGSWFIQSLCAMLKQYADKLEFMHILTRVNRKVATEFESFSFDATFHAKKQIPCIVSMLTKELYFYH
  in vitro cleavage, SDS-PAGE stained with Coomassie: cleavage of full length TDP-43 by purified cleaved caspase-3, resulting in three distinct fragments of approximately 42, 35, and 25 kD
